Measured values: patent publication US7741276B2, “Use of interleukin-18 inhibitors to inhibit tumor metastasis” (Ares Trading S.A., priority 1999, dated 2010)
Where “and” joins values, the source holds several entries; their conditions need not be identical. Identical values can stand only once. Marks after values point to notes of the source that are not given here.

Assays:
[1] = tested on: B16M cell adhesion to IL-18-treated HSE; experiment: B16M cell adhesion to IL-18-treated HSE; type: cell-based, mouse
Protocol: FIG. 4. In vitro B16M cells adhesion to IL-18-treated HSE. HSE cells were incubated with 1 ng/ml recombinant murine IL-18 for 6 hours. In some experiments, 10 μg/ml TNF-sRp55 or 100 ng/ml IL-1Ra was added 10 min before IL-18.In other experiments, 10 μg/ml anti-VCAM-1 antibody or a similar concentration of non-specific anti-mouse lgG was added to HSE cells 30 min before B16M cells. Then, B16M cell adhesion percentage was determined as described hereinbelow in the examples. The results represent the mean ±SD of three separate experiments, each in sextuplicate (n=18). Differences in the degree of adhesion with respect to basal medium-treated HSE (*) and to IL-18-treated HSE (**) were statistically significant (P<0.01), according to the Student's two-tailed, unpaired t-test.
(§1) HSE was separated from syngeneic mice, identified and cultured as previously described (26). B16M cells were labeled with 2′,7′-bis-(2-carboxyethyl)-5,6-carboxyfluorescein-acetoxymethylester solution (BCECF-AM, Molecular Probes, Eugene, Oreg.) as reported (16). Then, 2×10^5 cells/well were added to 24-well-plate cultured HSE and 8 min later, wells were washed three times with fresh medium. The number of adhering cells was determined using a quantitative method based on a previously described fluorescence measurement system (16). In some experiments, HSE cells were pre-incubated with B16M-CM for several hours before addition of B16M cells.

circulating IFN-γ = conditions: administration of IL-18BP to mice; cited from earlier work
IL-18 = target: T1, IL-18 (Homo sapiens, UniProt Q14116); conditions: in vitro; cited from earlier work
T1 sequence (Q14116 37-193): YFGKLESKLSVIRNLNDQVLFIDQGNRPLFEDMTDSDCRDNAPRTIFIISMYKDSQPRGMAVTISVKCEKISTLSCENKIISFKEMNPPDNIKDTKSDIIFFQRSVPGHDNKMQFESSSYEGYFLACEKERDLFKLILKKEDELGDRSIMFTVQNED

[2] = tested on: B16M cell adhesion to HSE cells; experiment: B16M cell adhesion to B16M-CM-treated primary HSE cultures; type: cell-based, mouse; conditions: for % Melanoma Cell Adhesion: HSE stimulated with B16-CM
Protocol: FIG. 2 Effect of irreversible ICE inhibitor and anti-mouse IL-18 antibody on B16M cell adhesion to HSE cells, and IL-1β and TNF-α production from untreated and B16M-CM-treated HSE. Cultured HSE cells were incubated in the presence of B16M-CM for 10 h. In some experiments, both untreated and treated HSE cells received 10 μM ICEi or 10 μg/ml anti-mouse IL-18 antibody before B16M-CM. The percentage of B16M cells adhered to HSE substrate was calculated as relative value with respect to the initial number of added cells. In addition, the culture supernatants were recovered before adhesion to determine IL-1β and TNF-α concentration by ELISA. Data represent the mean ±SD of 4 separate experiments, each in sextuplicate (n=24). The augmentation of B16M cell adhesion to B16M-CM-treated HSE and of IL-1β or TNF-α production with respect to untreated HSE (*P<0.01) were statistically significant according to the Student's two-tailed, unpaired t-test.
(§2) FIG. 3. Effect of ICEi on B16M cell adhesion to B16M-CM-treated HSE in vitro. HSE cells were incubated with basal medium or B16M-CM for 8 h. Some HSE cells received 10 μM ICEi for 18 h before B16M-CM. In addition, 1 ng/ml recombinant murine IL-1β was also added to some HSE cells together with B16M-CM for 8 h. In other experiments, HSE cells received 1 ng/ml murine IL-1β or 100 pg/ml TNF-α for 6 h, and 10 μg/ml rabbit anti-mouse IL-18 polyclonal antibody was added or not 1 h before the cytokine treatment. Non-specific IgG polyclonal antibody was also added to untreated and cytokine-treated HSE cells. Then, HSE cells were washed and BCEFCF-AM-labeled B16M cells were added and washed again 8 min later. The percentage of B16M cells adhered to HSE substrate was calculated as relative value with respect to the initial number of added cells. The results represent the mean ±SD of three separate experiments, each in sextuplicate (n=18). Differences in the degree of adhesion with respect to untreated HSE (*) and to IL-1β or TNF-α-treated HSE (**) were statistically significant (P<0.01), according to the Student's two-tailed, unpaired t-test.
Culture of B16M cells. B16M cells were cultured, maintained and passaged as previously described (11). B16M conditioned medium (B16M-CM) was prepared as follows: 5×10^5 cells were plated in a 25 cm^2 T-flask and cultured for 24 h. After which, cells were cultured for an additional period of 24 h in 5 ml serum-free medium (final cellular density of 6×10^4 cells/cm^2). Supernatants were collected, diluted 3:1 in fresh serum-free medium and passed through a 0.22 Ïm filter.
(§3) HSE was separated from syngeneic mice, identified and cultured as previously described (26). […] The number of adhering cells was determined using a quantitative method based on a previously described fluorescence measurement system (16). […]

[3] = tested on: B16M cell adhesion to IL-1β or TNF-α-treated HSE; experiment: B16M cell adhesion to IL-1β- or TNF-α-treated HSE; type: cell-based, mouse; conditions: 1 ng/ml murine IL-1β
Protocol: as §2, §3

B16M cells = experiment: Adhesion of pre-treated B16M cells (IL-18 or supernatant of B16M-CM-treated HSE) to HSE; type: cell-based, mouse; conditions: B16M cells incubated with 1 ng/ml murine IL-18 for 6 h
Protocol: However, local production of IL-18 may influence B16M cell behavior during its transit or arrest in the hepatic microvasculature.
as §1

IL-1Ra: recombinant human IL-1 receptor antagonist, gift from The Upjohn Co. [reference compound]
inhibition of IL-18-induced B16M cell adhesion to HSE ([1]; 100 ng/ml IL-1Ra added 10 min before IL-18): neither TNF-sR p55 nor IL-1Ra were able to inhibit it

B1: TNF-sR p55: human p55 TNF soluble receptor, gift from Serono Inc. (protein, UniProt P19438 30-211, looked up)
extracellular domain: LVPHLGDREKRDSVCPQGKYIHPQNNSICCTKCHKGTYLYNDCPGPGQDTDCRECESGSFTASENHLRHCLSCSKCRKEMGQVEISSCTVDRDTVCGCRKNQYRHYWSENLFQCFNCSLCLNGTVHLSCQEKQNTVCTCHAGFFLRENECVSCSNCKKSLECTKLCLPQIENVKGTEDSGTT
modifications: extracellular domain
inhibition of IL-18-induced B16M cell adhesion to HSE ([1]; 10 μg/ml TNF-sRp55 added 10 min before IL-18): neither TNF-sR p55 nor IL-1Ra were able to inhibit it

B2: IL-18BP: IL-18 binding protein, purified from urine, cloned and expressed in COS7 cells; binds IL-18 and blocks its activity (protein, UniProt O95998 31-194, looked up)
Interleukin-18-binding protein: TPVSQTTTAATASVRSTKDPCPSQPPVFPAAKQCPALEVTWPEVEVPLNGTLSLSCVACSRFPNFSILYWLGNGSFIEHLPGRLWEGSTSRERGSTGTQLCKALVLEQLTPALHSTNFSCVLVDPEQVVQRHVVLAQLWAGLRATLPPTQEALPSSHSSPQQQG
circulating IFN-γ following LPS (circulating IFN-γ): abrogated | IL-18 activation of NF-κB (IL-18): abolished | IL-18 induction of IL-8 (IL-18): abolished | IL-18 induction of interferon-γ (IFN-γ) (IL-18): abolished | % Melanoma Cell Adhesion ([2]; IL-18BP 1 ng/ml): 15.00 ± 2.5** % | % Melanoma Cell Adhesion ([2]; IL-18BP 10 ng/ml): 8.70% and 8.70 ± 1.1** % | inhibition of B16-CM-induced adhesion ([2]; IL-18BP 10 ng/ml, adhesion below basal medium level): 100%

B3: murine IL-1β: recombinant murine IL-1β from R&D System Inc. (protein, UniProt P10749 118-269, looked up)
Interleukin-1 beta: VPIRQLHYRLRDEQQKSLVLSDPYELKALHLNGQNINQQVIFSMSFVQGEPSNDKIPVALGLKGKNLYLSCVMKDGTPTLQLESVDPKQYPKKKMEKRFVFNKIEVKSKVEFESAEFPNWYISTSQAEHKPVFLGNNSGQDIIDFTMESVSS
compensation of the blocking effect of ICEi on HSE adhesiveness ([2]; 1 ng/ml murine IL-1β added with B16M-CM for 8 h to ICEi-treated HSE): did not compensate | B16M cell adhesion to IL-1β-treated control HSE [3]: significant B16M cell adhesion increase

B4: murine IL-18: recombinant murine IL-18 purchased from PeproTech (protein, UniProt P70380 36-192, looked up)
Interleukin-18: NFGRLHCTTAVIRNINDQVLFVDKRQPVFEDMTDIDQSASEPQTRLIIYMYKDSEVRGLAVTLSVKDSKMSTLSCKNKIISFEEMDPPENIDDIQSDLIFFQKRVPGHNKMEFESSLYEGHFLACQKEDDAFKLILKKKDENGDKSVMFTLTNLHQS
increase of B16M cell adhesion to untreated HSE (B16M cells): 2 fold | B16M cell adhesion to HSE ([1]; HSE incubated with 1 ng/ml recombinant murine IL-18 for 6 hours, P<0.01): increased
